What all share (assay): ELISA
Background: In an ELISA, binding on a coated surface is turned into a signal by an enzyme label.

Experiment [1] deals with T1, Fc tagged human SIRPα v2 ECD recombinant protein (human).
T1 construct: range 1-369; cloned range M1-R369 includes the signal peptide; also called hSIRPα V2
The gist of the method:
(§1)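 Indirect ELISA on coated antigen: primary antibody and HRP-labeled anti-species IgG secondary each incubated 1 hour at 37° C. Colour developed with TMB and acid-stopped; EC₅₀ calculated from OD 450 nm.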

The target of experiment [2] is T2, Fc tagged human SIRPβ ECD recombinant protein (human, UniProt O00241 30-371).
T2 construct: range 1-371; cloned range includes the signal peptide; also called hSIRPβ; not shown: human IgG Fc region (hFc) of the pCPC vector
T2 sequence (O00241 30-371 limits assumed, form in doubt): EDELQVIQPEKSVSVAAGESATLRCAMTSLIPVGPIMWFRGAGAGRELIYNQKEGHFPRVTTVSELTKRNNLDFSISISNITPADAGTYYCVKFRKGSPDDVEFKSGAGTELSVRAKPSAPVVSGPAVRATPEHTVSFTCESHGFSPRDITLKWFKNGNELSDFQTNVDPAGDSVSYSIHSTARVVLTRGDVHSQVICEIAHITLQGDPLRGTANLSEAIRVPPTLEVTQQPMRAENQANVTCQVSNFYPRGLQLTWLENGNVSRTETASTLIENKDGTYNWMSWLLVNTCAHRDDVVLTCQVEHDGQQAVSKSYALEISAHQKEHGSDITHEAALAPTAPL
Summed up:
as §1

The target in experiment [3] is T3, Fc tagged human SIRPα v1 ECD recombinant protein (human, UniProt P78324 31-370).
T3 construct: range 1-370; cloned range M1-R370 includes the signal peptide; also called hSIRPα V1; not shown: human IgG Fc region (hFc) of the pCPC vector
T3 sequence (P78324 31-370 limits assumed): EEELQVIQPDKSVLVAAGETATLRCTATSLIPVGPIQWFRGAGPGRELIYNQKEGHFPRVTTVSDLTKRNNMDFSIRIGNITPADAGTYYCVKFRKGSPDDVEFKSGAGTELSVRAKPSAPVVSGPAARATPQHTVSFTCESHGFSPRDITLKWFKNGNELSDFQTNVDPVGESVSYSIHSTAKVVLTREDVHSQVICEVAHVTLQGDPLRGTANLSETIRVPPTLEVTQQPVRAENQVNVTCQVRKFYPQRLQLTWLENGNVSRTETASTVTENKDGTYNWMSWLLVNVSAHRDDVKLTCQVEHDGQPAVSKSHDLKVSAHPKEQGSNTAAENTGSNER
How it is done:
(§2) Binding specificity of the purified hybridoma antibodies against SIRP family members was detected by ELISA assay using recombinant proteins of Fc tagged human SIRPα v1 ECD, human SIRPα v2 ECD, human SIRPβ ECD and human SIRPγ ECD. Briefly the antibodies were incubated with ELISA microplate coated antigens at 37° C. for 1 hour. After washing, horseradish peroxidase (HRP) labeled anti-mouse or anti-human IgG 2nd Ab (Sigma) was added and incubated at 37° C. for 1 hour. Then, 100 μl/well of TMB solution (Biotechnology) was added. After incubation for 15 minutes at room temperature, the reaction was stopped by the addition of 50 μl of 1N HCl. OD 450 nm was read and EC₅₀ was calculated. Other than 060 and HEFLB, all of the antibodies as tested can bind with both human SIRPα v1 and SIRPα v2. 060 and HEFLB can bind with human SIRPα v1 but not v2. Other than 055, all of the antibodies as tested can bind with human SIRPβ. In comparison with other known anti-SIRPα antibodies, only 022, 035 and 050 can bind with human SIRPγ weakly.

The target of experiment [4] is T1, Fc tagged human SIRPα v2 ECD …. As to the method:
as §2
The source holds these as a separate data set.

The target in experiment [5] is T2, Fc tagged human SIRPβ ECD recombinant …. How it is done: as §2
The source holds these as a separate data set.

Experiment [6] concerns the target T4, Fc tagged human SIRPγ ECD recombinant protein (human, UniProt Q9P1W8 29-360).
T4 construct: range 1-360; cloned range includes the signal peptide; also called hSIRPγ; not shown: human IgG Fc region (hFc) of the pCPC vector
As to the method:
as §2

In experiment [7] the target is T4, Fc tagged human SIRPγ ECD recombinant …. The gist of the method: as §1
The source holds these as a separate data set.

Experiment [8] shares this target. Summed up: as §1
This is another data set of the same source.

Like-named read-outs stand apart in the source and are kept apart here.

T4 sequence (Q9P1W8 29-360 limits assumed, form in doubt): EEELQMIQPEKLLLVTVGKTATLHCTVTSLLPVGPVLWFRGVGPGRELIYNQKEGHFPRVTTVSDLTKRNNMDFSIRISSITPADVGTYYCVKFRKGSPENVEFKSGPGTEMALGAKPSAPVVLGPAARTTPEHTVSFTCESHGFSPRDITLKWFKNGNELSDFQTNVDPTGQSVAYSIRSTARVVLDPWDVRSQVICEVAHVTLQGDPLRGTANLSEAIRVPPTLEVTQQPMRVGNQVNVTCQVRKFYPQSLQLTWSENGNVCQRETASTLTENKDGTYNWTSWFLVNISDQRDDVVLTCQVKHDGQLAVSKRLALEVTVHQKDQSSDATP

B1: chimeric antibody 001c (antibody, V domains shown)
VH: EVKLEESGGGLVQPGGSMKLSCVASGFTFRNYWMNWVRQSPERGLEWIAEISLKSNTYATHYAESVKGRFAISRDGSKSSFYLQMNDLRAEDTGIYYCTTFTKVVADWHLDVWGAGTTVTVSS
VL: DVLMTQTPLSLPVSLGDQASISCRSSQNIVHSNGNTYLEWYLQKPGQSPKLLIYKVSNRFSGVPDRFSGSGSGTDFTLRISRVEAEDLGVYYCFQGSHVPFTFGSGTKLEIK
Usually EC50 stands for the concentration giving half of the maximal effect. Regarding B1, the concentration for a half-maximal effect (EC50) in experiment [1] came out at 0.09 nM; in experiment [2] it was 0.12 nM.

B2: Antibody 001 (hybridoma antibody) (antibody, V domains shown)
VH: EVKLEESGGGLVQPGGSMKLSCVASGFTFRNYWMNWVRQSPERGLEWIAEISLKSNTYATHYAESVKGRFAISRDGSKSSFYLQMNDLRAEDTGIYYCTTFTKVVADWHLDVWGAGTTVTVSS
VL: DVLMTQTPLSLPVSLGDQASISCRSSQNIVHSNGNTYLEWYLQKPGQSPKLLIYKVSNRFSGVPDRFSGSGSGTDFTLRISRVEAEDLGVYYCFQGSHVPFTFGSGTKLEIK
notes: mouse hybridoma antibody
Turning to B2, the EC50 is 0.07 nM in experiment [3], 0.07 nM in experiment [4] and 0.12 nM in experiment [5].

B3: chimeric antibody 002c (antibody, V domains shown)
VH: EVKLEESGGGLVQPGGSMILSCVASGFTFRNYWMNWVRQSPERGLEWIAEITLKSNTYATHYAESVKGRFAISRDDSKSSFYLQMNDLRPEDTGIYYCTTFTKVVADWHLDVWGAGTTVTVSS
VL: DVLMTQTPLSLPVSLGDQASISCRSSQNIVHSNGNTYLEWYLQKPGQSPKLLIYKISNRFSGVPDRFSGSGSGTDFTLRISRVEAEDLGVYYCFQGSHVPFTFGSGTKLEIQ
Consider B3, for which the EC50 is 0.06 nM in experiment [1] and 0.11 nM in experiment [2].

B4: chimeric antibody 032c (antibody, V domains shown)
VH: EVRLEESGGGLVQPGGSMKLSCVVSGFTFRNYWMNWVRQSPERGLEWIAEITLKSNTYATHYAESVKGRFAISRDDSKSSFYLQMNDLRPEDTGIYYCTTFTKVVADWHLDVWGAGTTVTVSS
VL: DVLMTQTPLSLPVNLGDQASISCRSSQNIVHSNGNTYLEWYLQKPGQSPKLLIYKVSNRFSGVPDRFSGSGSGTDFTLRISRVEAEDLGVYYCFQGSHVPFTFGSGTKLEIK
In the case of B4, the EC50 in experiment [1] was 0.11 nM; in experiment [2] it was 0.12 nM.

B5: Antibody 002 (hybridoma antibody) (antibody, V domains shown)
VH: EVKLEESGGGLVQPGGSMILSCVASGFTFRNYWMNWVRQSPERGLEWIAEITLKSNTYATHYAESVKGRFAISRDDSKSSFYLQMNDLRPEDTGIYYCTTFTKVVADWHLDVWGAGTTVTVSS
VL: DVLMTQTPLSLPVSLGDQASISCRSSQNIVHSNGNTYLEWYLQKPGQSPKLLIYKISNRFSGVPDRFSGSGSGTDFTLRISRVEAEDLGVYYCFQGSHVPFTFGSGTKLEIQ
notes: mouse hybridoma antibody
In the case of B5, the EC50 in experiment [3] turned out to be 0.11 nM; in experiment [4], 0.1 nM; in experiment [5] it was 0.16 nM.

B6: Antibody 032 (hybridoma antibody) (antibody, V domains shown)
VH: EVRLEESGGGLVQPGGSMKLSCVVSGFTFRNYWMNWVRQSPERGLEWIAEITLKSNTYATHYAESVKGRFAISRDDSKSSFYLQMNDLRPEDTGIYYCTTFTKVVADWHLDVWGAGTTVTVSS
VL: DVLMTQTPLSLPVNLGDQASISCRSSQNIVHSNGNTYLEWYLQKPGQSPKLLIYKVSNRFSGVPDRFSGSGSGTDFTLRISRVEAEDLGVYYCFQGSHVPFTFGSGTKLEIK
notes: mouse hybridoma antibody
Regarding B6, the EC50 in experiment [3] worked out at 0.03 nM; in experiment [4], 0.04 nM; in experiment [5], 0.02 nM.

B7: chimeric antibody 055c (antibody, V domains shown)
VH: EVKLVESEGGLVQPGDSMKLSCTASGFTFSDYFMTWIRQVPEKGLEWIANVNYDGRSTYYLDSLKSRFIISRDNANNILYLQMSSLKSEDTATYYCAREGSQTPLYAVDYWGQGTSVTVSS
VL: DIVMTQSQKFMSTTVGDRVNITCKASQNVGTAVAWYQQKPGQSPKLLIYLASNRYTGVPDRFTGSGSGTDFTLTVSDMRSEDLADYFCQQYSIYPFTFGSGTKLEIK
Turning to B7, the EC50 in experiment [1] stood at 0.11 nM.

B8: chimeric antibody 060c (antibody, V domains shown)
VH: QVQLKESGPGLVAPSESLSITCTVSGFSLTNYDISWIRQSPGKGLEWLGVIWTGGDTNFNSAFMSRLSISKDKSKSQVFLKLNSLQTDDTAIYYCVRVQYFGGSYGPMDYWGQGISVTVSS
VL: DIQMTQASSYLSVSLGGRVTITCEASDHINDWLAWYQQTPGNAPRLLISGATSLETGVPSRFSGSGSGKDYTLSITSLQTEDIATYYCQQYWNTPLTFGAGTRLELK
Regarding B8, the EC50 in experiment [2] is 0.24 nM.

B9: Antibody 060 (hybridoma antibody) (antibody, V domains shown)
VH: QVQLKESGPGLVAPSESLSITCTVSGFSLTNYDISWIRQSPGKGLEWLGVIWTGGDTNFNSAFMSRLSISKDKSKSQVFLKLNSLQTDDTAIYYCVRVQYFGGSYGPMDYWGQGISVTVSS
VL: DIQMTQASSYLSVSLGGRVTITCEASDHINDWLAWYQQTPGNAPRLLISGATSLETGVPSRFSGSGSGKDYTLSITSLQTEDIATYYCQQYWNTPLTFGAGTRLELK
notes: mouse hybridoma antibody
For B9, the EC50 in experiment [3] is 0.03 nM; in experiment [5] it was 0.04 nM.

B10: chimeric antibody 074c (antibody, V domains shown)
VH: QVQLQQPRAELVKPGASVMLSCKASGYTFSSYWIHWVRQGPGQGLEWIGLIHPNSGNTDCSETFKNKATLTVDTSSSTAYMQLSSLASEDSAVYYCARDGASYDWFVHWGQGTLVTVSA
VL: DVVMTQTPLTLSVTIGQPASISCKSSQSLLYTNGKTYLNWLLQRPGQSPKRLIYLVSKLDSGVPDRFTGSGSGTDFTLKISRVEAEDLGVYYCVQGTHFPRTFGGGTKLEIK
As to B10, the EC50 in experiment [1] turned out to be 0.14 nM; in experiment [2], 0.11 nM.

B11: Antibody 074 (hybridoma antibody) (antibody, V domains shown)
VH: QVQLQQPRAELVKPGASVMLSCKASGYTFSSYWIHWVRQGPGQGLEWIGLIHPNSGNTDCSETFKNKATLTVDTSSSTAYMQLSSLASEDSAVYYCARDGASYDWFVHWGQGTLVTVSA
VL: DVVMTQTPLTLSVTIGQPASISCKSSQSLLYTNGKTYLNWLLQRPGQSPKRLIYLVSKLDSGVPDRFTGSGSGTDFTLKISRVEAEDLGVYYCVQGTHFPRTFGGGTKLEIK
notes: mouse hybridoma antibody
As for B11, the EC50 in experiment [3], in experiment [4] and in experiment [5] was 0.02 nM throughout.

B12: Antibody 035 (hybridoma antibody) (antibody, V domains shown)
VH: QIQLVQSGPELRKPGETVKISCKASGYSFTNYAMNWVKQAPGKVLKWMGFINTYTGEPTYADDFKGRFAFSLETSASTAYLQINNLKNEDTATYFCTRTRGYYDFDGGAFDYWGQGTSLTVSS
VL: DIVMTQSQKFMSTSIGDRVSVTCKASQNVGTHLAWYQQKPGQSPKALIFSASYRYIGVPDRFTGSGSGTDFTLTITNVQSEDLAEYFCQQYNTYPLTFGAGTKLELK
notes: mouse hybridoma antibody
Take B12: the EC50 worked out at 0.03 nM in experiment [3], 0.04 nM in experiment [4], 0.02 nM in experiment [5] and 2.22 nM in experiment [6].

B13: chimeric antibody 050c (antibody, V domains shown)
VH: QIQLVQSGPELKKPGETVKISCKASGYTFTHYSMHWVKQAPGKGLKWMGWINTETAEPTYVDDFKGRFAFSLEASASTAFFQINNLKNEDTATYFCARGGLRQGDYWGQGTTLTVSS
VL: QIVLTQSPPIMSASPGEKVTLTCSATSSVSASYLYWFQQKPGSSPKLWIYSTSNLASGVPARFSGSGSGTSYSLTISNMEPADAASYFCHQWSSYPYTFGGGTKLEIK
For B13, the EC50 was found to be 0.27 nM in experiment [7], 0.1 nM in experiment [1], 0.08 nM in experiment [2] and 0.27 nM in experiment [8].

B14: Antibody 050 (hybridoma antibody) (antibody, V domains shown)
VH: QIQLVQSGPELKKPGETVKISCKASGYTFTHYSMHWVKQAPGKGLKWMGWINTETAEPTYVDDFKGRFAFSLEASASTAFFQINNLKNEDTATYFCARGGLRQGDYWGQGTTLTVSS
VL: QIVLTQSPPIMSASPGEKVTLTCSATSSVSASYLYWFQQKPGSSPKLWIYSTSNLASGVPARFSGSGSGTSYSLTISNMEPADAASYFCHQWSSYPYTFGGGTKLEIK
notes: mouse hybridoma antibody
B14: the EC50 was determined as 0.08 nM in experiment [3], 0.08 nM in experiment [4], 0.11 nM in experiment [5] and 0.38 nM in experiment [6].

B15: reference antibody HEFLB (antibody, V domains shown)
VH: EVQLVQSGAEVKKPGESLRISCKASGYSFTSYWVHWVRQMPGKGLEWMGNIDPSDSDTHYSPSFQGHVTLSVDKSISTAYLQLSSLKASDTAMYYCVRGGTGTLAYFAYWGQGTLVTVSS
VL: DVVMTQSPLSLPVTLGQPASISCRSSQSLVHSYGNTYLYWFQQRPGQSPRLLIYRVSNRFSGVPDRFSGSGSGTDFTLKISRVEAEDVGVYYCFQGTHVPYTFGGGTKVEIK
Turning to B15, the EC50 was 0.17 nM in experiment [3], 0.17 nM in experiment [5] and 0.08 nM in experiment [2].

B16: Antibody 022 (hybridoma antibody) (antibody, V domains shown)
VH: QIQLVQSGPELKKPGETVKISCKASGYTFTDYAMHWVKQAPGKGLKWMGWKNTETGESTYAEDFKGRFAFFLETSASTAYLQINNVKNEDTATYFCARGGYGSNYVMDYWGQGTSVIVSS
VL: DIQMTQSSSSFSVSLGDRVTITCKASEDIYNRLAWYQQKPGNAPRLLISGATSLETGVPSRFSGSGSGKDYTLSITSLQTEDVATYYCQQYWNSPRTFGGGTKLEIK
notes: mouse hybridoma antibody
Regarding B16, the concentration giving a half-maximal response (EC50) in experiment [3] came out at 0.04 nM; in experiment [4] it was 0.04 nM; in experiment [5], 0.03 nM; in experiment [6] it was 0.76 nM.

Values taken from patent US20210347908A1 (ELPISCIENCE SUZHOU BIOPHARMA, published 2021).
